Data taken from publication PMC6938348.
Read-outs that look alike come from different tables or passages of the source.

Key:
[1] = molecular target: Her2 on cells (SKOV3, JIMT-1, MCF7) (human (endogenous in SKOV3, JIMT-1, MCF7)) (UniProt P04626); test: flow cytometry on cells; saturation binding of full-size antibodies on live high-Her2 SKOV3 cells, 4°C 2 h, 0 to 200 nM or 1 μM, washed, anti-human Fc AlexaFluor488-(Fab')2 detection; apparent KD
[2] = molecular target: Her2 on cells (SKOV3, JIMT-1, MCF7) (human (endogenous in SKOV3, JIMT-1, MCF7)) (UniProt P04626); test: flow cytometry on cells; saturation binding of full-size antibodies on live low-Her2 MCF7 cells, 4°C 2 h, 0 to 200 nM or 1 μM, washed, anti-human Fc AlexaFluor488-(Fab')2 detection; apparent KD
[3] = molecular target: soluble Her2 ectodomain (Homo sapiens (assumed; species and source not stated)) (UniProt P04626); test: SPR; antibody captured on an anti-hFc CM-5 surface, soluble Her2 ectodomain flowed (monovalent binding); single cycle kinetics in duplicate, 25°C, PBS with […] EDTA and 0.05% Tween 20; 1:1 binding model; Biacore T200
[4] = molecular target: Her2 on cells (SKOV3, JIMT-1, MCF7) (human (endogenous in SKOV3, JIMT-1, MCF7)) (UniProt P04626)
[5] = molecular target: Her2 on cells (SKOV3, JIMT-1, MCF7) (human (endogenous in SKOV3, JIMT-1, MCF7)) (UniProt P04626); remark: listed apart in the source
[6] = molecular target: Her2 (human (endogenous in SKOV3 and JIMT-1)) (UniProt P04626)
[7] = molecular target: Her2 (human (endogenous in SKOV3 and JIMT-1)) (UniProt P04626); remark: listed apart in the source
[8] = molecular target: Her2 (human (endogenous in SKOV3 and JIMT-1)) (UniProt P04626); remark: listed apart in the source
[9] = molecular target: Her2 (human (endogenous in SKOV3 and JIMT-1)) (UniProt P04626); remark: listed apart in the source
[10] = molecular target: Her2 (human (endogenous in SKOV3 and JIMT-1)) (UniProt P04626); remark: listed apart in the source
[11] = molecular target: Her2 (human (endogenous in SKOV3 and JIMT-1)) (UniProt P04626); remark: listed apart in the source
[12] = molecular target: bH1 full-size antibody variant 16–13 (H-G99R); test: SPR; antibody captured on an anti-hFc CM-5 surface, soluble Her2 ectodomain flowed (monovalent binding); single cycle kinetics in duplicate, 25°C, PBS with […] EDTA and 0.05% Tween 20; 1:1 binding model; Biacore T200
[13] = molecular target: Herceptin full-size antibody variant 7–6 (H-Y57A, L-N30D); test: as above
[14] = molecular target: bH1 full-size antibody variant 14–13 (H-D98W, H-G99D); test: as above
[15] = molecular target: bH1 full-size antibody variant 15–13 (H-G99D); test: as above
[16] = molecular target: Herceptin full-size antibody variant 7–5 (H-Y57A, L-F53N, L-Y92A); test: as above

Herceptin full-size antibody variant 2–3 (L-F53N)
Kd [1]: 1.95 nM | Kd [2]: 0.3 nM | Kd [3]: 2.1 nM

Herceptin full-size antibody variant 2–4 (L-Y92A)
Kd [1]: 1.98 nM | Kd [2]: 0.39 nM | Kd [3]: 2.32 nM

Herceptin full-size antibody variant 2–5 (L-F53N, L-Y92A)
IC50 of cytotoxicity, indirect ADC screen (DM1-conjugated secondary antibody), JIMT1 cells [4]: 8.7 nM | IC50 of cytotoxicity, indirect ADC screen (DM1-conjugated secondary antibody), MCF7 cells [4]: 8.1 nM | IC50 of cytotoxicity, indirect ADC screen (MMAE-conjugated secondary antibody), JIMT1 cells [4]: 24.4 nM | IC50 of cytotoxicity, indirect ADC screen (MMAE-conjugated secondary antibody), MCF7 cells [4]: 20.6 nM | IC50 of cytotoxicity, antibody directly conjugated to DM1, SKOV3 cells [5]: 0.161 nM | IC50 of cytotoxicity, antibody directly conjugated to PNU, MCF7 cells [5]: 4.72 nM | IC50 of cytotoxicity, antibody directly conjugated to PNU, SKOV3 cells [5]: 0.138 nM | Kd [1]: 1.98 nM | Kd [3]: 22.6 nM

Herceptin full-size antibody variant 2–6 (L-N30D)
Kd [1]: 2.58 nM | Kd [2]: 0.51 nM | Kd [3]: 6.85 nM

Herceptin full-size antibody variant 7-5 (H-Y57A, L-F53N, L-Y92A)
EC50 of internalization, direct (pHAb-conjugated antibody variant), SKOV3 cells, 37°C, 18 h, high content imaging [6]: 19.2 nM | EC50 of internalization, indirect (antibody variant + pHAb-secondary antibody), SKOV3 cells, 37°C, 18 h, high content imaging [6]: 1.99 nM

Herceptin full-size antibody variant 7–1 (H-Y57A)
Kd [1]: 2.27 nM | Kd [2]: 0.52 nM | Kd [3]: 1.6 nM

Herceptin full-size antibody variant 7–3 (H-Y57A, L-F53N)
Kd [1]: 2.34 nM | Kd [2]: 0.67 nM | Kd [3]: 16.1 nM

Herceptin full-size antibody variant 7–4 (H-Y57A, L-Y92A)
Kd [1]: 2.41 nM | Kd [2]: 0.47 nM | Kd [3]: 18 nM

Herceptin full-size antibody variant 7–5 (H-Y57A, L-F53N, L-Y92A)
IC50 of cytotoxicity, indirect ADC screen (DM1-conjugated secondary antibody), JIMT1 cells [4]: 15.7 nM | IC50 of cytotoxicity, indirect ADC screen (MMAE-conjugated secondary antibody), JIMT1 cells [4]: 11000 nM | IC50 of cytotoxicity, indirect ADC screen (MMAE-conjugated secondary antibody), MCF7 cells [4]: 32.4 nM | IC50 of cytotoxicity, indirect ADC screen (MMAE-conjugated secondary antibody), SKOV3 cells [4]: 0.204 nM | IC50 of cytotoxicity, antibody directly conjugated to DM1, SKOV3 cells [5]: 2.01 nM | IC50 of cytotoxicity, antibody directly conjugated to PNU, SKOV3 cells [5]: 2.08 nM | Kd [1]: 3.5 nM | Kd [2]: 594 nM

Herceptin full-size antibody variant 7–6 (H-Y57A, L-N30D)
Kd [1]: 3.16 nM | Kd [2]: 0.95 nM

Herceptin full-size antibody variant 11-9 (H-D98F, H-D31M, L-D28K)
EC50 of internalization, direct (pHAb-conjugated antibody variant), JIMT-1 cells, 37°C, 18 h, high content imaging [7]: 70 pM | EC50 of internalization, direct (pHAb-conjugated antibody variant), SKOV3 cells, 37°C, 18 h, high content imaging [7]: 0.32 nM | EC50 of internalization, indirect (antibody variant + pHAb-secondary antibody), SKOV3 cells, 37°C, 18 h, high content imaging [7]: 0.44 nM

Herceptin full-size antibody variant 12-9 (H-D98F, H-D31K, L-D28K)
EC50 of internalization, direct (pHAb-conjugated antibody variant), JIMT-1 cells, 37°C, 18 h, high content imaging [8]: 70 pM | EC50 of internalization, direct (pHAb-conjugated antibody variant), SKOV3 cells, 37°C, 18 h, high content imaging [8]: 0.41 nM | EC50 of internalization, indirect (antibody variant + pHAb-secondary antibody), SKOV3 cells, 37°C, 18 h, high content imaging [8]: 0.41 nM

WT Herceptin full-size antibody (variant 2-1, Parent 1)
EC50 of internalization, direct (pHAb-conjugated antibody variant), JIMT-1 cells, 37°C, 18 h, high content imaging [9]: 0.21 nM | EC50 of internalization, direct (pHAb-conjugated antibody variant), SKOV3 cells, 37°C, 18 h, high content imaging [9]: 0.32 nM | EC50 of internalization, indirect (antibody variant + pHAb-secondary antibody), SKOV3 cells, 37°C, 18 h, high content imaging [9]: 0.55 nM

bH1 full-size antibody variant 14-13 (H-D98W, H-G99D)
EC50 of internalization, direct (pHAb-conjugated antibody variant), SKOV3 cells, 37°C, 18 h, high content imaging [10]: 59 nM | EC50 of internalization, indirect (antibody variant + pHAb-secondary antibody), SKOV3 cells, 37°C, 18 h, high content imaging [10]: 3.75 nM

bH1 full-size antibody variant 16-13 (H-G99R)
EC50 of internalization, direct (pHAb-conjugated antibody variant), SKOV3 cells, 37°C, 18 h, high content imaging [11]: 74.9 nM

soluble Her2 ectodomain (from UniProt P04626 23-652) (domain or fragment)
Kd [12]: 417 nM | kon [12]: 120000 M⁻¹ s⁻¹ | Kd [13]: 43.2 nM | Kd [14]: 253 nM | kon [14]: 78000 M⁻¹ s⁻¹ | Kd [15]: 298 nM | Kd [16]: 68.1 nM
